Experimental data reported in PMC10126205, “A comparative analysis of lipoprotein transport proteins: LolA and LolB from Vibrio cholerae and LolA from Porphyromonas gingivalis” (Scientific Reports, 2023).
“And” between values parts separate entries of the source, which are not always exact repeats. Equal entries are not always repeated.

Assays:
LolA (LolA-PG) = biological target: T1, LolA (LolA-PG) (Porphyromonas gingivalis, UniProt B2RI10); test: isothermal titration calorimetry (single-site model, […] °C); assay type: binding
T1 construct: gene PGN_0486; LolA residues 27–215

LolB (Escherichia coli) = LolB (Escherichia coli) (UniProt P61320); conditions: cited from earlier work
[1] = biological target: LolB from Vibrio cholerae (Vibrio cholerae); test: ITC; LolA injected on LolB-VC (750 µM and 100 µM); MicroCal auto-iTC200, 25 °C, 20 mM HEPES pH 7.5, 150 mM NaCl; heats of LolA on buffer subtracted; single site binding model; no lipoprotein present
[2] = biological target: LolB from Vibrio cholerae (Vibrio cholerae (strain A1552)); test: ITC; MicroCal auto-iTC200, 25 °C, 20 mM HEPES pH 7.5, 150 mM NaCl; LolA injected onto LolB, 20 injections, stirring 300 rpm; single site binding model; no lipoprotein present

Molecule: N=C(N)SCc1ccc(Cl)c(Cl)c1 [A22]
- Kd (LolA (LolA-PG)): 681 ± 44.1 µM

Molecule: LolA (from UniProt P61316)
- Kd (LolB (Escherichia coli)): 30.6 µM

Molecule: LolA from Vibrio cholerae (from UniProt A5F2G9 17-198) (natural protein)
- Kd [1]: 27.5 µM and 32.9 µM
- stoichiometry N [1]: 0.72 and 0.83 and 0.78

B1: LolA from Vibrio cholerae (natural protein)
chain: APKDTLSERLAMSEGFSATFNQQVLSPEGKVILTGNGKVDIARPSLFRWETETPDENLLVSDGTTLWHFDPFVEQVTLYRAEEALEQTPFVLLTRNKASDWDAYHVEEKGDVFTLTPTALDSNQGRFQITISEKGVVQGFKVIEQDGQQSEFTFSKVKQQKPNASVFNYKVPKGVEVDDQRN
- Kd [2]: 30.2 µM
